From PMC4068353, “Characterization of 14-3-3-ζ Interactions with Integrin Tails” (Journal of Molecular Biology, 2013)
Several values for one entry are separate records, joined by “and”; a condition that tells them apart may be missing. Equal entries are not always repeated. Entries after “also recorded” stand apart in the source; their conditions may differ. Non-standard residues stand in square brackets, D forms with d. Residues, ends and D or L forms follow the SMILES beside them. No end group written: not given here. fluorescein‑5‑maleimide = fluorescein-5-maleimide linked to an engineered C-terminal Cys; pT = C[C@@H](OP(=O)(O)O)[C@H](N)C(=O)O; pS = N[C@@H](COP(=O)(O)O)C(=O)O

What was measured:
14-3-3-ζ [1] = molecular target: T1, 14-3-3-ζ (Homo sapiens, UniProt P63104); experiment: ITC of integrin tail fragments with 14-3-3-ζ; type: binding; settings: 298 K; for Kd: 20 mM sodium phosphate, 50 mM NaCl pH 6.5, integrin fragment in cell (80–200 μM), 14-3-3-ζ in syringe (0.75–2 mM), one-site model, repeated twice; for binding to 14-3-3-ζ by ITC, in words: pH 6.5, fragment in cell, 14-3-3-ζ in syringe
T1 construct: His10 (cleaved yes); made in house
T1 sequence (P63104 1-245): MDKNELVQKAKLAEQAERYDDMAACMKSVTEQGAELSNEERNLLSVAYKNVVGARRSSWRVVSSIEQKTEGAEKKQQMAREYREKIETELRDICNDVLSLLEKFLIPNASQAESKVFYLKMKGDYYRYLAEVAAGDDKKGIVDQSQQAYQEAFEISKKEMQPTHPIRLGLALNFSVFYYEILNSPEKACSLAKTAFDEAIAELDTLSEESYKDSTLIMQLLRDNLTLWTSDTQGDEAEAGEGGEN
Procedure: Phosphorylated α4 synthetic peptides were purchased from GL Biochem Ltd. (Shanghai). All recombinant proteins and synthetic peptides were prepared in 20 mM sodium phosphate and 50 mM NaCl (pH 6.5), and concentrations were determined by UV absorbance at 280 nm. ITC experiments using a VP-ITC200 instrument (MicroCal) were performed at 298 K as follows: the cell (volume, ~ 200 μl) contained the different integrin tail fragments, and the syringe (volume, ~ 40 μl) contained 14-3-3-ζ. A first injection of 2 μl was followed by 15 injections of 2.5 μl, with a stirring speed of 1500 rpm and a delay between injections of 180 s. A blank titration was performed by injecting 14-3-3-ζ into buffer to take the heat of dilution into account. Experiments were repeated twice for each sample. Raw data were processed and fitted with MicroCal Origin software using a one-site model where the error function is calculated as the sum of the squared deviations between the data and the model curve.

14-3-3-ζ [2] = molecular target: T1, 14-3-3-ζ; experiment: 15N-1H HSQC NMR titration of 15N-labeled integrin tails with unlabeled 14-3-3-ζ; type: binding; settings: 15N-labeled tail 0.1 mM, equimolar unlabeled 14-3-3-ζ; NMR buffer pH 6.5, 25 °C
Procedure: Samples were prepared in NMR buffer (pH 6.5) with 5% D2O, and experiments were performed at 25 °C. Titration experiments were collected on a 500-MHz spectrometer using a water flip-back-embedded gradient enhanced ^15N–^1H HSQC pulse sequence.[46] For the assignment of the α4 and β2 backbone resonances, ^15N–^13C integrin tails of 0.6 mM concentration were used to measure CBCA(CO)NH and CBCANH experiments on a Bruker 500-MHz instrument equipped with a cryogenic probe head. Data were processed using NMRPipe[47] and analyzed with the programs CARA/XEASY[48] or CCPN Analysis.[49]

14-3-3-ζ [3] = molecular target: T1, 14-3-3-ζ; experiment: Fluorescence polarization titration of fluorescein-labeled integrin tails with 14-3-3-ζ; type: binding; settings: fluorescein-labeled tail, 1 μM; ex 485 nm, em 520 nm
Procedure: Fig. 6 Fluorescence polarization and ITC of interactions between integrin tails and 14-3-3-ζ. (a) Fluorescence polarization titrations of fluorescein-labeled β1A, β3 and α4 with 14-3-3-ζ. […] (b–d) ITC sensorgram of an in-cell 200 μM β1A, β2 (same as in Fig. 5a) or β3 samples injected with 2 mM 14-3-3-ζ.
For fluorescence polarization experiments, integrin tails were labeled with fluorescein-5-maleimide (Invitrogen) linked to an engineered C-terminal Cys residue. Measurements were performed using 96-well microplates (Corning) in a PHERAstar FS microplate reader (BMG Labtech). Fluorescein-labeled integrin tails at 1 μM concentration were excited at 485 nm, and polarization was recorded at 520 nm.

14-3-3-ζ [4] = molecular target: T2, 14-3-3-ζ (UniProt P63104 1-245); experiment: fluorescence polarisation; fluorescein-labeled integrin tails at 1 μM titrated with increasing amounts of 14-3-3-ζ; 96-well plates; excitation 485 nm, emission 520 nm; single-site model; settings: both partners purified
T2 construct: 14-3-3 protein zeta; Expressed from the same modified pET16b vector as the integrin tails (His10, 3C site); also called 14-3-3-ζ wt; unlabeled 14-3-3-ζ; not shown: His10, N-terminal, cleaved
T2 sequence: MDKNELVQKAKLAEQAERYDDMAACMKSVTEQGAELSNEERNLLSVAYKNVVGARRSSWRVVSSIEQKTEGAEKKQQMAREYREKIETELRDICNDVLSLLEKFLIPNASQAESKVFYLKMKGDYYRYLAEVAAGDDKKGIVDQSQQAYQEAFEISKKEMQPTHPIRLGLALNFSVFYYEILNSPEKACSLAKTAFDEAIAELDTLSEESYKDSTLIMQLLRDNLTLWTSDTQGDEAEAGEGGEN

14-3-3-ζ [5] = molecular target: T2, 14-3-3-ζ; experiment: ITC; integrin tail fragment in the cell (80-200 μM), 14-3-3-ζ in the syringe (0.75-2 mM); 298 K; 20 mM sodium phosphate, 50 mM NaCl, pH 6.5; one-site model; settings: both partners purified
14-3-3-ζ [6] = molecular target: T2, 14-3-3-ζ; experiment: NMR titration; 15N-1H HSQC of 15N-labeled integrin tail (0.1 mM) before and after addition of unlabeled 14-3-3-ζ (wt or variant; equimolar, 0.1 mM); 20 mM sodium phosphate, 50 mM NaCl, pH 6.5, 5% D2O, 25 °C; read-out: loss of resonance intensity (I/Io); settings: both partners purified

## CC[C@H](C)[C@H](NC(=O)[C@H](COP(=O)(O)O)NC(=O)[C@H](CCCCN)NC(=O)[C@H](Cc1ccc(O)cc1)NC(=O)[C@H](CCC(N)=O)NC(=O)[C@H](CCCNC(=N)N)NC(=O)[C@H](CCCCN)NC(=O)[C@@H](N)Cc1ccccc1)C(=O)N[C@@H](CC(C)C)C(=O)N[C@@H](CCC(N)=O)C(=O)N[C@@H](CCC(=O)O)C(=O)O [α4-11pS] (H-FKRQYK[pS]ILQE-OH)
14-3-3-ζ [1]
  Kd: > 300 µM and 315 µM

## CC[C@H](C)[C@H](NC(=O)[C@H](Cc1ccc(O)cc1)NC(=O)[C@H](CO)NC(=O)[C@H](Cc1c[nH]c2ccccc12)NC(=O)[C@H](CO)NC(=O)[C@H](CC(=O)O)NC(=O)[C@H](CCCNC(=N)N)NC(=O)[C@H](CCCNC(=N)N)NC(=O)[C@H](CC(N)=O)NC(=O)[C@H](CCC(=O)O)NC(=O)[C@H](CCC(=O)O)NC(=O)[C@H](CCC(N)=O)NC(=O)[C@H](CC(C)C)NC(=O)[C@@H](NC(=O)[C@H](COP(=O)(O)O)NC(=O)[C@H](CCCCN)NC(=O)[C@H](Cc1ccc(O)cc1)NC(=O)[C@H](CCC(N)=O)NC(=O)[C@H](CCCNC(=N)N)NC(=O)[C@H](CCCCN)NC(=O)[C@H](Cc1ccccc1)NC(=O)[C@H](Cc1ccccc1)NC(=O)CN)[C@@H](C)CC)C(=O)N[C@@H](CC(N)=O)C(=O)N[C@@H](CO)C(=O)N[C@@H](CCCCN)C(=O)N[C@@H](CO)C(=O)N[C@@H](CC(N)=O)C(=O)N[C@@H](CC(=O)O)C(=O)N[C@@H](CC(=O)O)C(=O)O [α4-30pS] (H-GFFKRQYK[pS]ILQEENRRDSWSYINSKSNDD-OH)
14-3-3-ζ [1]
  Kd: 23.6 ± 2.1 µM

## GPLGSKAGFFKRQYKDILQEENRRDSWSYINSKSNDD [α4 S1011D, recombinant α4 integrin tail phospho-mimetic, S1011D]
14-3-3-ζ [2]
  change of integrin tail resonances on addition of 14-3-3-ζ, in words: significant decrease in α4 amide resonance intensities

## GS KLLITIHDRKEFAKFEEERARAKWDTANNPLYKEATSTFTNITYRGT [β3 wt, recombinant β3 integrin tail, residues 742–788]
14-3-3-ζ [1]
  binding to 14-3-3-ζ by ITC, in words: Only β1A gave a binding curve that could be fitted
14-3-3-ζ [2]
  change of integrin tail resonances on addition of 14-3-3-ζ, in words: intensity reduction for several resonances
14-3-3-ζ [3]
  binding to 14-3-3-ζ by fluorescence polarization, in words: No binding was detected

## GS KLLMIIHDRREFAKFEKEKMNAKWDTQENPIYKSPINNFKNPNYGRKAGL (GSKLLMIIHDRREFAKFEKEKMNAKWDTQENPIYKSPINNFKNPNYGRKAGL; left off: His10, N-terminal, cleaved) [β1D wt, recombinant β1D integrin tail, residues 752–801]
14-3-3-ζ [2]
  change of integrin tail resonances on addition of 14-3-3-ζ, in words: interacts with 14-3-3-ζ in a very similar way to β1A

## GS RLSVEIYDRREYSRFEKEQQQLNWKQDSNPLYKSAITTTINPRFQEADSPTL (GSRLSVEIYDRREYSRFEKEQQQLNWKQDSNPLYKSAITTTINPRFQEADSPTL; left off: His10, N-terminal, cleaved) [β7 wt, recombinant β7 integrin tail, residues 747–798]
14-3-3-ζ [2]
  change of integrin tail resonances on addition of 14-3-3-ζ, in words: intensity reduction for several resonances

## GSKALIHLSDLREYRRFEKEKLKSQWNNDNPLFKSATTTVMNPKFAES [β2 wt, recombinant unphosphorylated β2 integrin tail, residues 724–769]
14-3-3-ζ [1]
  binding to 14-3-3-ζ by ITC, in words: only a weak interaction; also recorded: the interaction is weak, in the millimolar range
14-3-3-ζ [1]; listed as β2
  binding to 14-3-3-ζ by ITC, in words: Only β1A gave a binding curve that could be fitted
14-3-3-ζ [2]
  change of integrin tail resonances on addition of 14-3-3-ζ, in words: selective broadening of β2 resonances

## KALIHLSDLREYRRFEKEKLKSQWNNDNPLFKSA[pT]TTVMNPKFAES [β2-45pT]
14-3-3-ζ [1]
  Kd: 7.9 ± 3.1 µM

## YKSAVpTTVVNP [β1-11pT, synthetic β1 phospho-threonine peptide, residues 783–793]
14-3-3-ζ [1]
  binding to 14-3-3-ζ by ITC, in words: no binding

## paxillin residues 111–128: phosphorylated peptide containing a putative 14-3-3 binding motif, corresponding to paxillin residues 111–128 (VGEEEHVYSFPNKQKSAE; also: phosphorylated; UniProt P49023 111-128, looked up, fragment)
14-3-3-ζ [1]
  binding to 14-3-3-ζ by ITC, in words: no interaction was detected by ITC

## paxillin: construct of the N-terminal region of paxillin (residues 1–323) that included all LD motifs
14-3-3-ζ [1]
  binding to 14-3-3-ζ by ITC, in words: no pairwise interaction was detected by ITC

## GSKLLMIIHDRREFAKFEKEKMNAKWDTGENPIYKSAVTTVVNPKYEGKC(fluorescein‑5‑maleimide) (domain or fragment) [fluorescein-labeled β1A integrin tail]
14-3-3-ζ [4]
  Kd: 95 ± 16 µM

B1: α4 integrin cytoplasmic tail S1011D (domain or fragment, human (from the printed UniProt entry))
chain: GPLGSKAGFFKRQYKDILQEENRRDSWSYINSKSNDD
notes: residues from the cloning tag at the N-terminus; integrin α4 cytoplasmic tail, residues 1001-1032 of UniProt P13612, with S1011D; 15N-labelled for NMR, unlabelled for ITC; also called α4 S1011D; α4 phospho-mimetic; not shown: His10, N-terminal, cleaved
14-3-3-ζ [5]
  Kd: ~60 µM

B2: α4 integrin cytoplasmic tail, wild type (domain or fragment, human (from the printed UniProt entry))
chain: GPLGSKAGFFKRQYKSILQEENRRDSWSYINSKSNDD
notes: residues from the cloning tag at the N-terminus; integrin α4 cytoplasmic tail, residues 1001-1032 of UniProt P13612; 15N-labelled for NMR, unlabelled for ITC; also called α4 wt; full-length α4 integrin tail; not shown: His10, N-terminal, cleaved
14-3-3-ζ [6]
  binding result: binds

B3: α4-11pS phospho-peptide (peptide)
peptide: FKRQYK[pS]ILQE
notes: integrin α4 cytoplasmic tail, residues 1005-1015 of UniProt P13612; S1011 is phospho-serine; also called short phosphorylated α4 integrin peptide; source: synthetic peptide, bought: GL Biochem Ltd. (Shanghai)
14-3-3-ζ [5]
  Kd: > 300 µM

B4: α4-30pS phospho-peptide (peptide)
peptide: GFFKRQYK[pS]ILQEENRRDSWSYINSKSNDD
notes: integrin α4 cytoplasmic tail, residues 1003-1032 of UniProt P13612; S1011 is phospho-serine; also called phosphorylated α4-derived peptide; source: synthetic peptide, bought: GL Biochem Ltd. (Shanghai)
14-3-3-ζ [5]
  Kd: ~24 µM

B5: β1A integrin cytoplasmic tail, wild type (domain or fragment, human (from the printed UniProt entry))
chain: GSKLLMIIHDRREFAKFEKEKMNAKWDTGENPIYKSAVTTVVNPKYEGK
notes: residues from the cloning tag at the N-terminus; integrin β1A cytoplasmic tail, residues 752-798 of UniProt P05556; 15N-labelled for NMR, unlabelled for ITC; also called β1A wt; not shown: His10, N-terminal, cleaved
14-3-3-ζ [5]
  Kd: 280 ± 40 µM

B6: β2-11pT phospho-peptide (peptide)
peptide: PLFKSATTTVM
modifications: also: phospho-threonine at 758
notes: integrin β2 cytoplasmic tail, residues 752-762 of UniProt P05107; T758 is phospho-threonine; also called short β2 phospho-peptide; source: synthetic peptide
14-3-3-ζ [5]
  Kd: 4 µM

B7: β2-45pT phospho-peptide (peptide)
peptide: KALIHLSDLREYRRFEKEKLKSQWNNDNPLFKSATTTVMNPKFAES
modifications: also: phospho-threonine at 758
notes: integrin β2 cytoplasmic tail, residues 724-769 of UniProt P05107; T758 is phospho-threonine; also called long β2 phospho-peptide; source: synthetic peptide
14-3-3-ζ [5]
  Kd: 8 µM
